Results taken from US6608174B1, “Radiolabeled vasoactive intestinal peptide analogs for diagnosis and radiotherapy” (Dabur Research Foundation, priority 2000, dated 2003).
Each block holds one molecule with its values, some of them ahead of it. Square brackets hold non-standard residues; d marks the D form. Ends that are not written are not given here. dPhe(4-Cl) = N[C@H](Cc1ccc(Cl)cc1)C(=O)O; Aib = CC(C)(N)C(=O)O

Legend:
[1] = system: VIP receptors; assay: Displacement assay using 125I labeled VIP (10-28) fragment on human tumor cell lines; conditions: inhibition of 125I labeled VIP (10-28) fragment binding
Procedure: Peptides of the invention were assayed for biological activity in homogeneous competition binding assays using ^125I labeled VIP peptide (SEQ ID NO:1) and in heterogeneous displacement assays using either ^125I labeled VIP (10-28) fragment (Tyr-Thr-Arg-Leu-Arg-Lys-Gln-Met-Ala-Val-Lys-Lys-Tyr-Leu-Asn-Ser-Ile-Leu-Asn-NH2) (SEQ ID NO: 12) or ^125I labeled VIP (SEQ ID NO:1). The assays were performed on a variety of human tumor cell lines.
In the practice of these methods, the peptide was radioiodinated using the iodogen method. Briefly, 5 μg of the peptide in 10 μl of 50 mM PBS (pH 7.5), an appropriate amount of the radioisotope and 50 μg-100 μg iodogen were incubated at room temperature for 15-30 min with occasional mixing. Radioiodinated peptide was purified from unincorporated radioactive iodine by purification on a Sep Pak C18 cartridge, essentially following the same procedure as described for technetium labeling.
Displacement assays were performed at 4-8° C. Briefly, 50,000 cells were plated per well of a 24 well plate and allowed to adhere overnight. Before the assay, the cells were washed twice with ice cold Binding buffer (25 mM HEPES, 10 mM MgCl2 and 1% BSA in RPMI 1640 medium). The cells were incubated for 2-3hrs with an appropriate concentration (0.1-10 nM) of ^125I labeled VIP (10-28) fragment (SEQ ID NO:12) in the presence and absence of the cold ligand (SEQ ID NO: 2) (1 nM-10 μM). The non specific binding was ascertained using 10 μM of VIP. After incubation, the cells were washed thrice with the binding buffer to remove the unbound peptide. The cells were lysed and counts were measured in a Gamma counter. From a comparison of the extent of binding in the presence or absence of the unlabeled peptide, a concentration was determined corresponding to inhibition of ^125I labeled VIP (10-28) fragment binding by 50% (termed the IC50) (TABLE III).
The following tumor cell lines were assayed using the above described displacement assay: HT29 (human colorectal adenocarcinoma); PTC (human primary tumor cells adenocarcinoma); KB (human squamous cell carcinoma); 4451 (human squamous cell carcinoma); L132 (human lung carcinoma); A549 (human lung carcinoma); HBL100 (human breast carcinoma) and PA1 (human ovarian carcinoma).
Cells were grown in RPMI 1640 supplemented with 10% fetal calf serum, glutamine and antibiotics using standard cell culture techniques (see Animal Cell Culture: A Practical Approach, Freshney, ed, IRL press: Oxford, UK, 1992).

[2] = target: high affinity (nM range), low surface expression receptor on human tumor cells (VIP receptor) (human); assay: homologous radioligand competition, 125I-SEQ ID NO:2 on PA1 cells
[3] = target: low affinity (µM range), high surface expression receptor on human tumor cells (VIP receptor) (human); assay: as above
[4] = target: VIP receptors on human tumor cell lines (human); assay: displacement of 125I labeled VIP on KB cells
[5] = target: VIP receptors on human tumor cell lines (human); assay: displacement of 125I labeled VIP on 4451 cells
[6] = target: high affinity (nM range), low surface expression receptor on human tumor cells (VIP receptor) (human); assay: maximal binding, 125I-SEQ ID NO:2 on HBL 100 cells
[7] = target: low affinity (µM range), high surface expression receptor on human tumor cells (VIP receptor) (human); assay: maximal binding, 125I-SEQ ID NO:2 on HBL 100 cells
[8] = target: VIP receptors on human tumor cell lines (human); assay: displacement of 125I labeled VIP (10-28) fragment on HBL 100 cells
[9] = target: high affinity (nM range), low surface expression receptor on human tumor cells (VIP receptor) (human); assay: maximal binding, 125I-SEQ ID NO:2 on HT29 cells
[10] = target: low affinity (µM range), high surface expression receptor on human tumor cells (VIP receptor) (human); assay: maximal binding, 125I-SEQ ID NO:2 on HT29 cells
[11] = target: high affinity (nM range), low surface expression receptor on human tumor cells (VIP receptor) (human); assay: homologous radioligand competition, 125I-SEQ ID NO:2 on 4451 cells
[12] = target: low affinity (µM range), high surface expression receptor on human tumor cells (VIP receptor) (human); assay: as above
[13] = target: high affinity (nM range), low surface expression receptor on human tumor cells (VIP receptor) (human); assay: homologous radioligand competition, 125I-SEQ ID NO:2 on PTC cells
[14] = target: low affinity (µM range), high surface expression receptor on human tumor cells (VIP receptor) (human); assay: as above
[15] = target: high affinity (nM range), low surface expression receptor on human tumor cells (VIP receptor) (human); assay: maximal binding, 125I-SEQ ID NO:2 on PA1 cells (printed PAI)
[16] = target: low affinity (µM range), high surface expression receptor on human tumor cells (VIP receptor) (human); assay: as above

Molecule: His-Ser-Asp-Aib-Val-4-Cl-D-Phe-Thr-Asp-Asn-Tyr-Thr-Arg-Leu-Arg-Lys-Gln-Leu-Ala-Val-Lys-Lys-Tyr-Leu-Asn-Ser-Ile-Leu-Asn-NH2 (HSD[Aib]V[dPhe(4-Cl)]TDNYTRLRKQLAVKKYLNSILN-NH2; N-terminus assumed; SMILES CC[C@H](C)[C@H](NC(=O)[C@H](CO)NC(=O)[C@H](CC(N)=O)NC(=O)[C@H](CC(C)C)NC(=O)[C@H](Cc1ccc(O)cc1)NC(=O)[C@H](CCCCN)NC(=O)[C@H](CCCCN)NC(=O)[C@@H](NC(=O)[C@H](C)NC(=O)[C@H](CC(C)C)NC(=O)[C@H](CCC(N)=O)NC(=O)[C@H](CCCCN)NC(=O)[C@H](CCCNC(=N)N)NC(=O)[C@H](CC(C)C)NC(=O)[C@H](CCCNC(=N)N)NC(=O)[C@@H](NC(=O)[C@H](Cc1ccc(O)cc1)NC(=O)[C@H](CC(N)=O)NC(=O)[C@H](CC(=O)O)NC(=O)[C@@H](NC(=O)[C@@H](Cc1ccc(Cl)cc1)NC(=O)[C@@H](NC(=O)C(C)(C)NC(=O)[C@H](CC(=O)O)NC(=O)[C@H](CO)NC(=O)[C@@H](N)Cc1c[nH]cn1)C(C)C)[C@@H](C)O)[C@@H](C)O)C(C)C)C(=O)N[C@@H](CC(C)C)C(=O)N[C@@H](CC(N)=O)C(N)=O) [SEQ ID NO:2, VIP receptor antagonist, preferred peptide (Xxx = Aib)]
IC50 ([1]; 4451 cells): 0.383 nM
IC50 ([1]; A549 cells): 0.275 nM
IC50 ([1]; HBL 100 cells): 0.236 nM
IC50 ([1]; HT29 cells): 0.22 nM
IC50 ([1]; KB cells): 0.35 nM
IC50 ([1]; L132 cells): 0.228 nM
IC50 ([1]; PA1 cells): 0.31 nM
IC50 ([1]; PTC cells): 0.132 nM

Kd [2]: 5.6 nM
Kd [3]: 1890 nM
IC50 [4]: 6.2 nM
IC50 [5]: 7.1 nM
Bmax1 [6]: 697 pM
Bmax2 [7]: 69.1 nM
IC50 [8]: 0.236 nM
Bmax1 [9]: 367 pM
Bmax2 [10]: 67.2 nM
Kd [11]: 4.48 nM
Kd [12]: 1910 nM
Kd [13]: 1.77 nM
Kd [14]: 1180 nM
Bmax1 [15]: 529 pM
Bmax2 [16]: 47.7 nM
Molecule: HSD[Aib]V[dPhe(4-Cl)]TDNYTRLRKQLAVKKYLNSILN-NH2 (also: 125I-labelled form (iodogen) used as tracer)
